The record followed here is article PMC7088233.

As usually defined, the Kd is the constant that tells how readily two partners part at equilibrium. As usually defined, the koff is a measure of how fast the partners let go of each other.

Assay [1] addresses recombinant glycosylated HIV-1 IIIB gp120 (baculovirus) (HIV-1 IIIB) (UniProt P04578). Briefly: SPR. (In general: In SPR one partner is held on a chip, and binding of the other changes the refractive index at the surface.)
For assay [2] the target is unchanged.

With “recombinant KAA-1 after removal of the His tag by thrombin (natural protein)”, in assay [1], the Ka worked out at 1.61e+09 M⁻¹, the Kd was found to be 0.622 nM and the koff came out at 0.000529 s⁻¹.

Take “native KAA-2 lectin from Kappaphycus alvarezii (natural protein)”: the IC50 of neutralization of HIV-1 (derived from pNL4-3) in Jurkat cells in assay [2] was 7.3 nM.

In the case of “His-tagged recombinant KAA-1 (Kappaphycus alvarezii agglutinin 1) (natural protein)”, the IC50 of neutralization of HIV-1 (derived from pNL4-3) in Jurkat cells in assay [2] came to 12.9 nM.

Take “native KAA-1 lectin from Kappaphycus alvarezii (natural protein)”: the IC50 of neutralization of HIV-1 (derived from pNL4-3) in Jurkat cells in assay [2] worked out at 9.2 nM.
